Paper PMC8752827, “Towards a generic prototyping approach for therapeutically-relevant peptides and proteins in a cell-free translation system” (Nature Communications, 2022)

Target: Trypsin
Assay: trypsin-inhibitory assay (residual enzyme activity on a fluorogenic substrate); 100 pM trypsin pre-incubated with peptide (twofold dilution series) for 3 h at room temperature in 0.1 M NaCl, 10 mM CaCl2, 0.005% Triton X-100, 0.1 M Tris-HCl pH 8.0; residual activity with 10 uM Boc-Q-A-R-7-amido-4-methyl-coumarin; IC50 from a nonlinear fit of initial velocities (Prism)

Trypsin, sequence (P00760 24-246): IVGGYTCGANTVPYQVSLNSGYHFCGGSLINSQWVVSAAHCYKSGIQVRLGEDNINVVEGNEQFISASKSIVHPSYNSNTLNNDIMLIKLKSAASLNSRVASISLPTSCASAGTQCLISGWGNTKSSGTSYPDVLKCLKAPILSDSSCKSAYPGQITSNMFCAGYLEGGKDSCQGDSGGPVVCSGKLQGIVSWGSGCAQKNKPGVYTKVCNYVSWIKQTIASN

Substance	IC50 [pM]
cell-free synthesized linear oxidized circularly permuted SFTI (prmSFTI) (peptide)	332
chemically synthesized backbone-cyclic sunflower trypsin inhibitor (SFTI) (peptide)	171
chemically synthesized linear oxidized circularly permuted SFTI (prmSFTI) (peptide)	361
